Assay [1] deals with T1, methylated H3K4 peptides (panel of biotinylated histone tail peptides) (Homo sapiens, UniProt P68431).
T1 construct: purchased Upstate Biotechnology
Description: Histone peptide binding (pull-down) assay with biotinylated histone peptides. The settings on record: for preference for methylation state of H3K4 peptides: pull-down with biotinylated histone peptides, anti-GST immunoblot. As for the experimental part: (§1) FIG. 3 The ASHH2 CW domain binds histone H3 tails methylation on lysine 4. (A) Cartoon of the ASHH2 protein with CW, AWS and KMT (SET domain) indicated. The two recombinant proteins used in this study are also illustrated. (B) SDS-PAGE of purified GST and GST-ASHH2-CW. (C) Pull-down assay using biotinylated histone peptides and recombinant GST, GST-ASHH2-CW and GST-ING2-PHD as indicated. The ratio of proteins and peptides were 0.5 μg:0.5 μg. (D) Pull-down assay using biotinylated histone peptides and recombinant GST and GST-ASHH2-CW as indicated. The ratio of proteins and peptides were 1.0 μg:0.5 μg. (E) Surface plasmon resonance traces from an experiment with immobilised, biotinylated H3K4me1 peptide and GST-ASHH2-CW. (F) Dissociation constants for GST-ASHH2-CW and the three H3K4me peptides indicated calculated from surface plasmon resonance data. The number of replicates are indicated.
(§2) FIG. 4 CW domains from four different proteins bind methylated H3K4 peptides. (A) Cartoons of the proteins studied: human MORC4, Arabidopsis VAL1, and human ZCWPW1. (B, C) Pull-down assay using biotinylated histone peptides and (B) recombinant GST, GST-Val1-CW and GST-MORC4-CW or (C) GST, GST-ASHH2-CW, and GST-ZCWPW1-CW, as indicated. The ratio of proteins and peptides were equimolar.
(§3) FIG. 7 Probing the predicted histone tail binding site with mutant CW domains. […] The predicted binding site for the histone tail is indicated as in FIG. 6D. (B and C) Pull-down assays using biotinylated histone peptides and recombinant GST and GST-ASHH2-CW mutant proteins as indicated. The ratio of proteins and peptides were 1.0 μg:0.5 μg.
(§4) Histone peptide binding assays were performed as described by Shi et al (2006) with biotinylated histone peptides from Upstate Biotechnology. The protein-peptide ratio used is indicated in the legends to the figures. Bound proteins were visualized by immunoblotting using rabbit anti-GST antibodies Z-5 (SC-456) from Santa Cruz at a 1:20,000 dilution, and a donkey anti-rabbit HRP conjugate (Amersham NA934) at a 1:10,000 dilution.

Assay [2] has as its target biotinylated H3 peptide dimethylated on lysine 4 (H3K4me2) (Homo sapiens, UniProt P68431). Description: Surface plasmon resonance (BIAcore T100) binding to immobilised H3K4me2 peptide. The following applies: GST-tagged protein 0.1 μM to 10 μM, HBS-P buffer. As for the experimental part:
(§5) Surface plasmon resonance binding assays were performed on a BIAcore T100 biosensor according to the manufacturers protocols using immobilized, biotinylated H3 peptides monomethylated (0.54 ng), dimethylated (0.24 ng), or trimethylated (0.48 ng) on lysine 4. GST-tagged ASHH2 CW protein in five different concentrations in a range from 0.1 μM to 10 μM was injected for 2 min at a flow rate of 10 μl/min. Each sample injection was followed by injection of HBS-P buffer (10 mM HEPES pH 7; 150 mM NaCl) alone for 5 min at a flow rate of 5 μl/min. Kd values were obtained using the Biacore T100 Evaluation software 2.0.1. Measurements were repeated 2 to 5 times.

Assay [3] deals with T2, three methylated forms of H3K27-peptides (Homo sapiens, UniProt P68431).
T2 construct: purchased Upstate Biotechnology
Description: Histone peptide binding (pull-down) assay, methylated H3K27 peptides. The settings on record: protein:peptide 1.0 μg:0.5 μg. As for the experimental part: as §1, §4

The target in assay [4] is biotinylated H3 peptide monomethylated on lysine 4 (H3K4me1) (Homo sapiens, UniProt P68431). Kind of assay: Surface plasmon resonance (BIAcore T100) binding to immobilised H3K4me1 peptide. The settings on record: GST-tagged protein 0.1 μM to 10 μM, HBS-P buffer. As for the experimental part: as §5
For assay [5], the target named is T3, H3K4me3 peptide (Homo sapiens, UniProt P68431).
T3 construct: purchased Upstate Biotechnology
Kind of assay: Histone peptide binding (pull-down) assay, H3K4me3 peptide. The settings on record: protein:peptide 0.5 μg:0.5 μg. As for the experimental part: as §1, §4

Assay [6] concerns H3K4me1 in Arabidopsis chromatin. Description: Chromatin pulldown (ChPD), western blot quantification, H3K4me1. Type of assay: binding. The settings on record: chromatin from Arabidopsis seedlings, anti-H3K4me1 western blot. An excerpt:
(§6) FIG. 8 Chromatin pulldown (ChPD) using the ASHH2 CW. […] Modified histones were visualised by western blot using antibodies as indicated. Molecular size markers are shown to the right. (B) qPCR with primers for assumed ASHH2 target genes on DNA isolated from seedling chromatin pulled down with GST-CWASHH2. ChPD with GST alone was used as a negative control. Data are shown as percent of input. The Ta3 retrotransposon was used as reference. Standard deviations are shown. (C) ChIP using antibodies against H3K4me1, H3K4me3 and H3K36me3 and primers for the same genes as in (B). Data are shown relative to Ta3. (D) ChPD from wt and ashh2 mutant seedlings as in (A) using antibodies as indicated. ChPD with GST alone was used as a negative control and histone H3 as reference.
(§7) Chromatin pull-down (ChPD) was performed using crude chromatin in ChIP dilution buffer (1.1% Triton X-100, 1.2 mM EDTA, 16.7 mM Tris-HCL pH 8, 167 mM NaCl) prepared as for ChIP (Gendrel et al., 2005) incubated with 8 μg GST-CW fusion protein and control proteins (only GST alone, or together with GST-CW-W874A and GST-WIYLD) over night. For western blotting, the pulled down chromatin was washed three times in ChIP dilution buffer, run on a 15% SDS-PAGE and blotted onto a PVDF membrane. […]
(In western blotting, separated proteins are transferred to a membrane and probed.)

The subject of assay [7] is chromatin associated with genes regulated by ASHH2. Description: Chromatin pulldown (ChPD) followed by qPCR on ASHH2 target genes. Type of assay: binding, Arabidopsis. The settings on record: seedling chromatin; GST alone as negative control.
Description: as §6, §7
(Real-time PCR tracks product formation cycle by cycle.)

Assay [8] deals with biotinylated H3 peptide trimethylated on lysine 4 (H3K4me3) (Homo sapiens, UniProt P68431). Kind of assay: Surface plasmon resonance (BIAcore T100) binding to immobilised H3K4me3 peptide. The settings on record: GST-tagged protein 0.1 μM to 10 μM, HBS-P buffer. Here is the method:
as §5

In assay [9] the test system is H3K4 methylated chromatin. Kind of assay: Chromatin pulldown (ChPD) with western blot detection. Type of assay: binding. The following applies: antibodies against each of the three H3K4 methylation states; Arabidopsis seedling chromatin.
Description: as §6, §7

Assay [10] has as its system methylated H3K4 peptides (panel of biotinylated histone tail peptides). Kind of assay: Histone peptide binding (pull-down) assay with biotinylated histone peptides. The settings on record: panel incl. trimethylated H3K27 and H3K36 peptides. Here is the method: as §1, §2, §3, §4
The subject of assay [11] is H3K4me2 in Arabidopsis chromatin. Description: Chromatin pulldown (ChPD), western blot quantification, H3K4me2. Type of assay: binding. The following applies: chromatin from Arabidopsis seedlings, anti-H3K4me2 western blot.
Description: as §6, §7

B1: GST-ZCWPW1-CW: human ZCWPW1 CW domain (nt 714-942, from HEK293 cDNA) as GST fusion protein (protein)
chain: IRDQQKGEISGFGQCLVWVQCSFPNCGKWRRLCGNIDPSVLPDNWSCDQNTDVQYNRCDIPEETWTGLESDVAYAS
modifications: left off: a dimerising Fc or GST
notes: human ZCWPW1 CW domain (nt 714-942, from HEK293 cDNA) as GST fusion protein
Regarding B1, in assay [1], the “preference for methylation state of H3K4 peptides” value (“preference for methylation state” below) is “clear preference for H3 Kme2 and me3 peptides”.

B2: GST-ASHH2-CW: Arabidopsis ASHH2 CW domain (nt 2547-2811) expressed and purified as a GST-fusion protein from bacteria (protein)
chain: VVDVTIEDSYSTESAWVRCDDCFKWRRIPASVVGSIDESSRWICMNNSDKRFADCSKSQEMSNEEINEELGIGQDEADAYDCDAAKRG
modifications: left off: a dimerising Fc or GST
notes: Arabidopsis ASHH2 CW domain (nt 2547-2811) expressed and purified as a GST-fusion protein from bacteria
Regarding B2, the Kd in assay [2] was found to be 2100 nM; in assay [4] it was 1150 nM; in assay [8], 4000 nM. For the same molecule, the “binding to methylated H3K27-peptides” value in assay [3] is listed as “no binding was observed”. Also, in assay [5], the “binding to the H3K4me3 peptide” value is listed as “close to background levels”. Besides, the “bound H3K4me1 chromatin relative to input chromatin” value in [6] is reported as 4.4 times of input material (2.5%). Moreover, the “binding of chromatin associated with ASHH2-regulated genes (real-time PCR)” value in assay [7] is reported as “significantly above background levels”. Further, the “pull down of H3K4 methylated chromatin (western blot signal)” value in [9] was “Strong signals”. Further, the “sequence selectivity on histone peptide panel” value in [10] is on record as “only binds the methylated H3K4 peptides”. In [1], the “preference for methylation state” value was “preference for mono- and dimethylated H3K4 peptides”. Besides, in assay [11], the “bound H3K4me2 chromatin relative to input chromatin” value was 3.3 times of input material (2.5%).

B3: GST-Val1-CW: Arabidopsis VAL1 CW domain (nt 1575-1797) as GST fusion protein (protein)
chain: VFGKRTIVTTKPSGEQERWATCDDCSKWRRLPVDALLSFKWTCIDNVWDVSRCSCSAPEESLKELENVLKVGRE
modifications: left off: a dimerising Fc or GST
notes: Arabidopsis VAL1 CW domain (nt 1575-1797) as GST fusion protein
Consider B3, for which the “preference for methylation state” value in assay [1] (listed as VAL1) was “strongest preference for K4me3”; in assay [1] (listed as VAL1 CW) it was “clear preference for H3 Kme2 and me3 peptides”.

B4: W865A: GST-ASHH2-CW mutant, tryptophan 865 to alanine (protein)
chain: MVVDVTIEDSYSTESAAVRCDDCFKWRRIPASVVGSIDESSRWICMNNSDKRFADCSKSQEMSNEEINEELGIGQDEADAYDCDAAKRG
modifications: left off: a dimerising Fc or GST; large carriers; small tags and cut ends
notes: GST-ASHH2-CW mutant, tryptophan 865 to alanine
As to B4, the “histone tail binding of mutant ASHH2 CW domains” value in assay [1] (pull-down, protein:peptide 1.0 μg:0.5 μg) is “abolished histone tail binding”.

B5: GST-MORC4-CW: human MORC4 CW domain (nt 1236-1422, from HEK293 cDNA) as GST fusion protein (protein)
chain: TVARPIPKVPDQTWVQCDECLKWRKLPGKIDPSMLPARWFCYYNSHPKYRRCSVPEEQELTD
modifications: also: GST fusion partner not part of the given chain
notes: human MORC4 CW domain (nt 1236-1422, from HEK293 cDNA) as GST fusion protein
Consider B5, for which the “preference for methylation state” value in assay [1] is “preference for H3K4me2”.

One may read the Kd as the concentration at which binding is half-saturated. Low values mean a tighter complex, high ones a looser complex.

The values are drawn from patent publication US20140148355A1, “COMPOSITIONS AND METHODS FOR ANALYSIS OF H3K4 METHYLATED CHROMATIN” (UNIVERSITY OF OSLO, priority 2011, published 2014).
